Oligonucleotides are written 5' to 3', each unit as a sugar letter and its base; * is a phosphorothioate linkage, no mark a phosphodiester; rarer units and linkages stand in square brackets, end groups in braces. Plain capitals give the bases only. r = 2'-OH (RNA); f = 2'-fluoro
Columns and labels:
[1] = target: T1, chymase (Homo sapiens, UniProt P23946); experiment: Surface plasmon resonance (Biacore T100), aptamer immobilized on SA chip, chymase injected as analyte; type: binding; design: key: ++: a sequence that binds to chymase significantly more strongly than the negative control 40N; +: a sequence that binds to chymase equivalently compared with the negative control 40N; details: Table 1; about 1000 RU nucleic acid immobilized, chymase 0.2 μM analyte, running buffer solution A; compared with 40N
T1 sequence (P23946 22-247): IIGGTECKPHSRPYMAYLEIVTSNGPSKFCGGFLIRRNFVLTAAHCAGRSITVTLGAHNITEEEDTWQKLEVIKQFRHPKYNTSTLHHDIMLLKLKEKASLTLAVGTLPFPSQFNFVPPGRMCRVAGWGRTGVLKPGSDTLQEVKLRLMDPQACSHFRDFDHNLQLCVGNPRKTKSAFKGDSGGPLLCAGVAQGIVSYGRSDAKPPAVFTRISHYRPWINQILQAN
Protocol: Binding strength is measured using Biacore T100 (manufactured by GE Healthcare). In a method of measurement, the aptamer is first immobilized onto a sensor chip, the amount immobilized being about 1000 RU. 20 μL of a chymase solution for analyte, prepared at 0.2 μM, is injected, and the binding of chymase to the aptamer is detected. An RNA comprising a random nucleotide sequence of 30 or 40 nucleotides is used as a negative control.
The binding activities against chymase of the nucleic acids shown by SEQ ID NO: 4-20 and 22-34 were determined by the surface plasmon resonance method using Biacore T100 (manufactured by GE Healthcare). The sensor chip used was the SA chip, which had streptavidin immobilized thereon. Bound thereto was about 1500 RU of a 16-nucleotide Poly dT with biotin bound to the 5′ end thereof. […] 20 μL of chymase for analyte, prepared at 0.2 μM, was injected. Solution A was used as a running buffer.
The binding activities against chymase of the nucleic acids shown by SEQ ID NO: 38-48 were evaluated by the surface plasmon resonance method. In the evaluations for SEQ ID NO: 38-48, measurements were taken in the same manner as Example 1. Solution C was used as a running buffer.

[2] = target: T2, chymase (recombinant, manufactured by SIGMA) (Homo sapiens, UniProt P23946); experiment: Chymase inhibitory activity using synthetic substrate Suc-Ala-Ala-Pro-Phe-MCA; type: biochemical; details: Table 3; substrate 100 μM, solution C, 37° C.; mean value for 2 to 3 measurements
T2 construct: purchased SIGMA; host or cells: yeast
T2 sequence (P23946 22-247): T1 sequence (P23946 22-247)
Protocol: A first method employs a synthetic substrate. A useful chymase substrate is Suc-Ala-Ala-Pro-Phe-MCA (4-methylcoumaryl-7-amide group) (manufactured by Peptide Institute, Inc.), which contains the 4-amino acid peptide “Ala-Ala-Pro-Phe”, a standard substrate for chymotrypsin-like proteases.
The assay is performed using a 96-well plate (F16 Black Maxisorp Fluoronunc, manufactured by Nunc), with a reaction mixture volume of 100 μL, in a buffer solution (solution C; see Example 2 below). First, each nucleic acid is prepared in solution C to obtain 50 μL solutions. After 10 μL of the 1 mM substrate prepared in solution C is added, the plate is set to the microplate reader SpectraMax190 (manufactured by Molecular Devices Corporation), and incubated at 37° C. for 5 minutes. Separately, 0.05 μg of chymase (recombinant, manufactured by SIGMA) is diluted in solution C, and 40 μL of this dilution is incubated at 37° C. for 5 minutes. The chymase solution is added to the mixture of the nucleic acid and substrate to initiate an enzyme reaction. The plate containing the reaction mixture is set to the microplate reader SpectraMax190 (manufactured by Molecular Devices Corporation), and examined for time-dependent changes in the fluorescence intensity at 37° C. for 5 minutes (excitation wavelength 380 nm, detection wavelength 460 nm). A linear approximation of the increase in the fluorescence of the AMC (7-amino-4-methylcoumarine) released from the substrate by chymase activity is generated, and its slope is taken as the initial reaction velocity. For control, samples are treated and analyzed in the same manner in two cases: use of a nucleic acid pool containing a random sequence of 30 or 40 nucleotides (negative control), and use of chymostatin, a known chymotrypsin-like serine protease inhibitor (positive control). Taking the initial reaction velocity without the nucleic acid and inhibitor as a 100% enzyme activity, the inhibitory rate for each test substance is calculated, and the inhibitor concentration required to cause a 50% inhibition of the enzyme activity (IC50) is determined.
Whether the nucleic acids shown by SEQ ID NO: 4-20, 22-34, and 38-48 inhibit the enzyme activity of chymase was determined as described below. The chymase substrate used was Suc-Ala-Ala-Pro-Phe-MCA (manufactured by Peptide Institute, Inc.), which contains the 4-amino-acid peptide Ala-Ala-Pro-Phe, a standard substrate for chymotrypsin-like proteases. Here, Suc is a protecting succinyl group, and MCA is a 4-methylcoumaryl-7-amide group; upon cleavage of the C-terminal side of phenylalanine, AMC (7-amino-4-methylcoumarine) is released. By detecting the fluorescence of this AMC, the enzyme activity of chymase can be determined. The assay was performed using a 96-well plate (F16 Black Maxisorp Fluoronunc, manufactured by Nunc), with a reaction mixture volume of 100 μL, in solution C as a buffer solution. First, each nucleic acid was serially diluted to 0.0027-2 μM concentrations in solution C to obtain 50 μL solutions. After 10 μL of the 1 mM substrate prepared in solution C was added thereto, the plate was set to the microplate reader SpectraMax190 (manufactured by Molecular Devices Corporation), and incubated at 37° C. for 5 minutes. Separately, 0.05 μg (or 0.005 μg) of chymase (recombinant, manufactured by SIGMA) was diluted in solution C to obtain a 40 μL chymase solution, and incubated at 37° C. for 5 minutes. The chymase solution was added to the mixture of the nucleic acid and substrate to initiate an enzyme reaction. The final chymase concentration in the reaction mixture was 16.7 nM (or 1.67 nM), the final substrate concentration being 100 μM. The plate containing the reaction mixture was set to the microplate reader SpectraMax190 (manufactured by Molecular Devices Corporation), and examined for time-dependent changes in the fluorescence intensity at 37° C. for 5 minutes (or 30 minutes) (excitation wavelength 380 nm, detection wavelength 460 nm). […]

B1: 28 (nucleic acid)
chain: rGrGrGrAfCrGrGfUrArGrGrArAfUfUfCrArAfUfUfUfCfUfUfUfCfUrAfUfUfCfUfCrAfCfCfUrGrArGfUrAfUrAfUfCrArGrGfCrAfCrArGfUrAfCrAfUrArGrArArGrArGfCrGrGfCfCrGfC
modifications: aptamer
- Binding activity as determined using Biacore [1]: +
- IC50 [2]: 45 ± 4 nM

B2: 20 (nucleic acid)
chain: rGrGrGrAfCrGrGfUrArGrGrArAfUfUfCrArArArAfUfCrArGfCfUrGrAfUfUfUrGfUrArAfUfUfUfUfUfUfUrAfCrAfCrArGrGfCrArArArAfCrAfCrAfUrArGrArArGrArGfCrGrGfCfCrGfC
modifications: aptamer
- Binding activity as determined using Biacore [1]: +
- IC50 [2]: 282 ± 13 nM

B3: 26 (nucleic acid)
chain: rGrGrGrAfCrGrGfUrArGrGrArAfUfUfCrGfUfCrGrAfUfUfCfUrAfCrArGrAfUrArGrArGrAfUrArArArGfUrArGrArAfUfUfUrArAfCrArArArAfCrAfUrArGrArArGrArGfCrGrGfCfCrGfC
modifications: aptamer
- Binding activity as determined using Biacore [1]: ++
- IC50 [2]: 106 ± 4 nM

B4: 23 (nucleic acid)
chain: rGrGrGrAfCrGrGfUrArGrGrArAfUfUfCrAfUrAfUrGfUrAfCfUfCfCrGfUfCfCfUrGrAfCrArArArAfUrGfUfCrArAfUrGrAfCrArArAfCrGfUfUfCrAfUrArGrArArGrArGfCrGrGfCfCrGfC
modifications: aptamer
- Binding activity as determined using Biacore [1]: ++
- IC50 [2]: 238 ± 60 nM

B5: 16 (nucleic acid)
chain: rGrGrGrAfCrGrGfUrArGrGrArAfUfUfCfCfCrAfUrGrAfCfUrGrArArArArAfCrGfUfCrArGfUrArArArAfUfCfCrGrArArArAfUfCrAfUrAfUfCrAfUrArGrArArGrArGfCrGrGfCfCrGfC
modifications: aptamer
- Binding activity as determined using Biacore [1]: ++
- IC50 [2]: > 500 nM

B6: 17 (nucleic acid)
chain: rGrGrGrAfCrGrGfUrArGrGrArAfUfUfCfCrGfUfUfCrGfCrArGrArArAfCrGrArAfCfUfUfUfUrArArArArArAfUrGfUrAfCrGfUrGrGrGrArGfCrAfCrAfUrArGrArArGrArGfCrGrGfCfCrGfC
- Binding activity as determined using Biacore [1]: ++
- IC50 [2]: 92 ± 42 nM

B7: 29 (nucleic acid)
chain: rGrGrGrAfCrGrGfUrArGrGrArAfUfUfCrAfCrGrAfCfCrGfCfCfCrArArArArArAfUrGrGfUrGrAfCrAfUfUfUfUrArGrArArAfCrAfCfCrGrArAfCrAfUrArGrArArGrArGfCrGrGfCfCrGfC
modifications: aptamer
- Binding activity as determined using Biacore [1]: ++
- IC50 [2]: > 500 nM

B8: 27 (nucleic acid)
chain: rGrGrGrAfCrGrGfUrArGrGrArAfUfUfCfCrGfUfCrAfUfCrGrGfUfUrGfCrArArAfUfUrGrArArArAfUrAfCrArArArAfCrArArGrGrAfCrArAfCfCrAfUrArGrArArGrArGfCrGrGfCfCrGfC
modifications: aptamer
- Binding activity as determined using Biacore [1]: ++
- IC50 [2]: > 500 nM

B9: 24 (nucleic acid)
chain: rGrGrGrAfCrGrGfUrArGrGrArAfUfUfCfCfCfUfUfCrAfUrArGfUrArGrArAfUrGfUfUrGrGfUfUfUfCfUrAfCrArArArArGfCrGrAfCrArArGfCrAfUrArGrArArGrArGfCrGrGfCfCrGfC
modifications: aptamer
- Binding activity as determined using Biacore [1]: ++
- IC50 [2]: 92 ± 3 nM

B10: 31 (nucleic acid)
chain: rGrGrGrAfCrGrGfUrArGrGrArAfUfUfCrGfUfCfCfCfUfCrAfUrGfUfCfUrAfUfUfUfUrGfCrArGrAfUrArGrAfCfUfUrArArArGfCrArArAfCrAfUrArGrArArGrArGfCrGrGfCfCrGfC
- Binding activity as determined using Biacore [1]: +
- IC50 [2]: 155 ± 39 nM

B11: 22 (nucleic acid)
chain: rGrGrGrAfCrGrGfUrArGrGrArAfUfUfCfCfCrGrAfCrAfCrArArArAfUrGfUrGfUrGrAfUfUrArAfUfUfCfCrGrArAfCrArAfCrArArArGfUrArAfCrAfUrArGrArArGrArGfCrGrGfCfCrGfC
modifications: aptamer
- Binding activity as determined using Biacore [1]: +
- IC50 [2]: 105 ± 9 nM

B12: 25 (nucleic acid)
chain: rGrGrGrAfCrGrGfUrArGrGrArAfUfUfCrArGfCfUrGrAfCfUfCfCrArAfUrGfCrAfCrAfCrGfUrArGrAfUrArGrArGfUfUrArArArAfCrGfUfUrGfCrAfUrArGrArArGrArGfCrGrGfCfCrGfC
modifications: aptamer
- Binding activity as determined using Biacore [1]: ++
- IC50 [2]: 79 ± 28 nM

B13: 30 (nucleic acid)
chain: rGrGrGrAfCrGrGfUrArGrGrArAfUfUfCrGfUfCfCfCfUfCfUfUrGfUfCfUrAfUfUfUfUrGfCrArGrAfUrArGrAfCfUfUrArArArGfCrArArAfCrAfUrArGrArArGrArGfCrGrGfCfCrGfC
- Binding activity as determined using Biacore [1]: ++
- IC50 [2]: 147 ± 44 nM

B14: 18 (nucleic acid)
chain: rGrGrGrAfCrGrGfUrArGrGrArAfUfUfCrGrArAfCrGrAfCrArArAfUfUrAfUrArGrArAfCfUfUfCrGfUfUfUrGrAfCrAfUfUfCfCrAfCrAfCfCrAfCrAfUrArGrArArGrArGfCrGrGfCfCrGfC
modifications: aptamer
- Binding activity as determined using Biacore [1]: ++
- IC50 [2]: 58 ± 21 nM

B15: 19 (nucleic acid)
chain: rGrGrGrAfCrGrGfUrArGrGrArAfUfUfCfCfCrAfCfUrGfCrArAfUfUfCrArGfCrArGrArArArArArAfUfUfCfCrGrArArArArAfCrAfCrAfCrAfCfCrAfUrArGrArArGrArGfCrGrGfCfCrGfC
modifications: aptamer
- Binding activity as determined using Biacore [1]: ++
- IC50 [2]: 163 ± 1 nM

Reference: patent US9012420B2, “Aptamer for chymase, and use thereof” (Ribomic Inc., priority 2009, dated 2015)
